Assay results: PMC4200520

Molecular target: XMAP-Ct, C-terminal coiled-coil fragment of XMAP215 (Xenopus) (UniProt Q9PT63)
Assay: SPR
Settings: domain or fragment

TD5, TACC domain fragment of XTACC3 with a deletion of helix α1, sequence (Q9PTG8 whole entry, stated change not applied, the tested form may be a part): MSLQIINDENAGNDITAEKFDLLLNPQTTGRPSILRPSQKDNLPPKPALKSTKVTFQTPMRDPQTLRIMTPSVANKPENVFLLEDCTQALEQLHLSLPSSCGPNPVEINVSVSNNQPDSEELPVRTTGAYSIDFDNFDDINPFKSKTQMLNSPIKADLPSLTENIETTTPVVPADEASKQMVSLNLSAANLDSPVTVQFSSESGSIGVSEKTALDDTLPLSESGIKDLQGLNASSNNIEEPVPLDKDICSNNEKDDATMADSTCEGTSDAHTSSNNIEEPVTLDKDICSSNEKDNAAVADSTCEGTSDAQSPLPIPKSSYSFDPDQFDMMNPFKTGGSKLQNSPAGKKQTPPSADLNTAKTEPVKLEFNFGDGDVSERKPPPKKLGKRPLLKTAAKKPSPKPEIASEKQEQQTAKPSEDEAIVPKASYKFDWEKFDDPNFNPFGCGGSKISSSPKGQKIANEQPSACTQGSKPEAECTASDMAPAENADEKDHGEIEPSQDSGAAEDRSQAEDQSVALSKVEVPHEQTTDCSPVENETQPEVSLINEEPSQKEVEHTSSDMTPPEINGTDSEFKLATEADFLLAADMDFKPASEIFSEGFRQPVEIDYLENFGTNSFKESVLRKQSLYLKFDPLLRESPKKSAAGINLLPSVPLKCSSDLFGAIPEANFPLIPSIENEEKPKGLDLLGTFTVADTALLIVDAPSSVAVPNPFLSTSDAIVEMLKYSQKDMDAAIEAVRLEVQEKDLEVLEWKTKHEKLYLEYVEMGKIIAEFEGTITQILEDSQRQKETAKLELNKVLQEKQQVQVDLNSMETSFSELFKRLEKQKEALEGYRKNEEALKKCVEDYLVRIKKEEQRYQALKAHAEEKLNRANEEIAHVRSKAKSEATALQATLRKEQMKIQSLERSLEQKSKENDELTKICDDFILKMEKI
XMAP-Ct, C-terminal coiled-coil fragment of XMAP215 (Xenopus), sequence (Q9PT63 2002-2065): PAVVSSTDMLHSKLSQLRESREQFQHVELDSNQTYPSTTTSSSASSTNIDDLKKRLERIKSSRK

Question: For “TD5, TACC domain fragment of XTACC3 with a deletion of helix α1”, which Kd is on record?
Answer: 4.3 µM
